# Paper PMC9098913, “In vitro reconstitution of Escherichia coli divisome activation” (Nature Communications, 2022)
# B1: FtsA R286W (protein)
# chain: MIKATDRKLVVGLEIGTAKVAALVGEVLPDGMVNIIGVGSCPSRGMDKGGVNDLESVVKCVQRAIDQAELMADCQISSVYLALSGKHISCQNEIGMVPISEEEVTQEDVENVVHTAKSVRVRDEHRVLHVIPQEYAIDYQEGIKNPVGLSGVRMQAKVHLITCHNDMAKNIVKAVERCGLKVDQLIFAGLASSYSVLTEDERELGVCVVDIGGGTMDIAVYTGGALRHTKVIPYAGNVVTSDIAYAFGTPPSDAEAIKVRHGCALGSIVGKDESVEVPSVGGRPPWSLQRQTLAEVIEPRYTELLNLVNEEILQLQEKLRQQGVKHHLAAGIVLTGGAAQIEGLAACAQRVFHTQVRIGAPLNITGLTDYAQEPYYSTAVGLLHYGKESHLNGEAEVEKRVTASVGSWIKRLNSWLRKEF
# modifications: Cy3 or Cy5 at the N-terminus in the labelled form (labelled CLEPTGG peptide conjugated to the 5xGly tag by sortagging); unlabelled protein also used; left off: TwinStrep-SUMO, N-terminal, cleaved | 5x
# Assay: Diffusion coefficient (Dcoeff) of FtsA from FRAP
# Conditions: for Diffusion Coefficient, mean: Fig. 3j; for Dcoeff: Fig. S3i/S3j, summary value
# Text: We could also use the data from these bleaching experiments to quantify the membrane-binding kinetics and diffusion of membrane-bound proteins by analysing the change of the fluorescence profile during recovery.
# Equimolar concentrations of Cy3- and Cy5-labelled FtsA, supplemented with 20% unlabelled FtsA were used to study FRET and FRAP. Five pre-bleach frames were acquired, followed by acceptor photobleaching of a rectangular ROI with 40% 641 nm laser power and a dwell size of 1 µs/pixel, 75% overlapping lines. The recovery of the signal or the increase in donor intensity were measured with either two frames or one frame per second.
# Bleaching the acceptor dye leads to an increase in the donor intensity, which can be used to quantify the Foerster Resonance energy transfer (FRET)[48]. FRET efficiency was quantified with E%=Ipost/Ipost+Ipre⋅100 , where Ipost is the intensity of the […] and Ipre is the […]. […] To extract the contribution of both processes, we adjusted a routine recently published by Gerganova et al.[33]. In short, the code provides the contribution of both modes of recovery by analysing the shape of the fluorescence recovery profile. […] Contribution of diffusion leads to a change of the slope of the outer borders of the bleached region (S4h right). Thus, by measuring the change of the slope of the border recovery, diffusion and simple on/off binding can be distinguished. We developed “FRAPdiff”, a graphical user interface, which uses the original fit routine by David Rutkowski. It can be used directly on.tiff movies with annotated bleach regions as ImageJ ROIs. In addition, we added optional bleach correction, user selectable projection axis (x or y), and optional mirroring of the recovery profiles, if bleaching was not symmetric. The original fit routine for estimating the recovery and diffusion dynamics can be found at https://github.com/davidmrutkowski/1DReflectingDiffusion. FRAPdiff is available at 10.5281/zenodo.6400639[49] under the GPLv3 open-source license.
molecule,measurement,setting,value
B1,"Diffusion Coefficient, mean",0.1 µM FtsA + N,7.25E-02 µm2/s
same,"Diffusion Coefficient, mean",0.1 µM FtsA + Z&N,2.31E-02 µm2/s
same,"Diffusion Coefficient, mean",0.1 µM FtsA + Z,5.72E-03 µm2/s
same,Diffusion Coefficient,"0.1µM FtsA alone, Mean, n=18 (WT), 6 (R286W)",0.0520
same,"Diffusion Coefficient, mean",0.1 µM FtsA alone,5.20E-02 µm2/s
same,Diffusion Coefficient,"0.1µM FtsA alone, replicate Exp.1",8.43E-02
same,Diffusion Coefficient,"0.1µM FtsA alone, replicate Exp.2",1.09E-02
same,Diffusion Coefficient,"0.1µM FtsA alone, replicate Exp.3",6.73E-03
same,Diffusion Coefficient,"0.1µM FtsA alone, replicate Exp.4",8.58E-02
same,Diffusion Coefficient,"0.1µM FtsA alone, replicate Exp.5",8.30E-02
same,Diffusion Coefficient,"0.1µM FtsA alone, replicate Exp.6",4.11E-02
same,Diffusion Coefficient,"0.1µM, + FtsN&Z, Mean, n=5 (WT), 3 (R286W)",0.0231
same,Diffusion Coefficient,"0.1µM, + FtsN&Z, replicate Exp.1",1.54E-02
same,Diffusion Coefficient,"0.1µM, + FtsN&Z, replicate Exp.2",3.28E-02
same,Diffusion Coefficient,"0.1µM, + FtsN&Z, replicate Exp.3",2.10E-02
same,Diffusion Coefficient,"0.1µM, + FtsN, Mean, n=5 (WT), 3 (R286W)",0.0725
same,Diffusion Coefficient,"0.1µM, + FtsN, replicate Exp.1",2.08E-01
same,Diffusion Coefficient,"0.1µM, + FtsN, replicate Exp.2",5.52E-03
same,Diffusion Coefficient,"0.1µM, + FtsN, replicate Exp.3",4.11E-03
same,Diffusion Coefficient,"0.1µM, + FtsZ, Mean, n=8 (WT), 4 (R286W)",0.0057
same,Diffusion Coefficient,"0.1µM, + FtsZ, replicate Exp.1",3.86E-04
same,Diffusion Coefficient,"0.1µM, + FtsZ, replicate Exp.2",2.70E-04
same,Diffusion Coefficient,"0.1µM, + FtsZ, replicate Exp.3",1.57E-02
same,Diffusion Coefficient,"0.1µM, + FtsZ, replicate Exp.4",6.48E-03
same,"Diffusion Coefficient, mean",0.2 µM FtsA + N,7.49E-02 µm2/s
same,"Diffusion Coefficient, mean",0.2 µM FtsA + Z&N,3.50E-02 µm2/s
same,"Diffusion Coefficient, mean",0.2 µM FtsA + Z,1.81E-02 µm2/s
same,Diffusion Coefficient,"0.2µM FtsA alone, Mean, n=24 (WT), 6 (R286W)",0.1536
same,"Diffusion Coefficient, mean",0.2 µM FtsA alone,1.54E-01 µm2/s
same,Diffusion Coefficient,"0.2µM FtsA alone, replicate Exp.1",5.97E-01
same,Diffusion Coefficient,"0.2µM FtsA alone, replicate Exp.2",7.31E-02
same,Diffusion Coefficient,"0.2µM FtsA alone, replicate Exp.3",7.49E-02
same,Diffusion Coefficient,"0.2µM FtsA alone, replicate Exp.4",3.26E-02
same,Diffusion Coefficient,"0.2µM FtsA alone, replicate Exp.5",1.37E-01
same,Diffusion Coefficient,"0.2µM FtsA alone, replicate Exp.6",6.07E-03
same,Diffusion Coefficient,"0.2µM, + FtsN&Z, Mean, n=8 (WT), 6 (R286W)",0.0350
same,Diffusion Coefficient,"0.2µM, + FtsN&Z, replicate Exp.1",5.92E-02
same,Diffusion Coefficient,"0.2µM, + FtsN&Z, replicate Exp.2",5.62E-02
same,Diffusion Coefficient,"0.2µM, + FtsN&Z, replicate Exp.3",3.73E-02
same,Diffusion Coefficient,"0.2µM, + FtsN&Z, replicate Exp.4",2.25E-02
same,Diffusion Coefficient,"0.2µM, + FtsN&Z, replicate Exp.5",3.21E-02
same,Diffusion Coefficient,"0.2µM, + FtsN&Z, replicate Exp.6",2.82E-03
same,Diffusion Coefficient,"0.2µM, + FtsN, Mean, n=7 (WT), 4 (R286W)",0.0749
same,Diffusion Coefficient,"0.2µM, + FtsN, replicate Exp.1",3.41E-02
same,Diffusion Coefficient,"0.2µM, + FtsN, replicate Exp.2",6.37E-02
same,Diffusion Coefficient,"0.2µM, + FtsN, replicate Exp.3",1.01E-01
same,Diffusion Coefficient,"0.2µM, + FtsN, replicate Exp.4",1.01E-01
same,Diffusion Coefficient,"0.2µM, + FtsZ, Mean, n=7 (WT), 6 (R286W)",0.0181
same,Diffusion Coefficient,"0.2µM, + FtsZ, replicate Exp.1",2.61E-02
same,Diffusion Coefficient,"0.2µM, + FtsZ, replicate Exp.2",3.49E-02
same,Diffusion Coefficient,"0.2µM, + FtsZ, replicate Exp.3",2.40E-02
same,Diffusion Coefficient,"0.2µM, + FtsZ, replicate Exp.4",1.48E-02
same,Diffusion Coefficient,"0.2µM, + FtsZ, replicate Exp.5",2.86E-04
same,Diffusion Coefficient,"0.2µM, + FtsZ, replicate Exp.6",8.41E-03
same,"Diffusion Coefficient, mean",0.4 µM FtsA + N,4.57E-02 µm2/s
same,"Diffusion Coefficient, mean",0.4 µM FtsA + Z&N,7.88E-03 µm2/s
same,"Diffusion Coefficient, mean",0.4 µM FtsA + Z,3.05E-02 µm2/s
same,Diffusion Coefficient,"0.4µM FtsA alone, Mean, n=18 (WT), 9 (R286W)",0.1352
same,"Diffusion Coefficient, mean",0.4 µM FtsA alone,1.35E-01 µm2/s
same,Diffusion Coefficient,"0.4µM FtsA alone, replicate Exp.1",1.81E-01
same,Diffusion Coefficient,"0.4µM FtsA alone, replicate Exp.2",2.05E-02
same,Diffusion Coefficient,"0.4µM FtsA alone, replicate Exp.3",2.71E-02
same,Diffusion Coefficient,"0.4µM FtsA alone, replicate Exp.4",1.05E-01
same,Diffusion Coefficient,"0.4µM FtsA alone, replicate Exp.5",1.05E-01
same,Diffusion Coefficient,"0.4µM FtsA alone, replicate Exp.6",1.63E-01
same,Diffusion Coefficient,"0.4µM FtsA alone, replicate Exp.7",2.73E-01
same,Diffusion Coefficient,"0.4µM FtsA alone, replicate Exp.8",2.14E-01
same,Diffusion Coefficient,"0.4µM FtsA alone, replicate Exp.9",1.27E-01
same,Diffusion Coefficient,"0.4 µM FtsA, FRAP, p-value […] 10^−6",0.14 ± 0.08 µm^2/s
same,Diffusion Coefficient,"0.4µM, + FtsN&Z, Mean, n=6 (WT), 9 (R286W)",0.0079
same,Diffusion Coefficient,"0.4µM, + FtsN&Z, replicate Exp.1",3.88E-02
same,Diffusion Coefficient,"0.4µM, + FtsN&Z, replicate Exp.2",8.74E-03
same,Diffusion Coefficient,"0.4µM, + FtsN&Z, replicate Exp.3",4.31E-03
same,Diffusion Coefficient,"0.4µM, + FtsN&Z, replicate Exp.4",3.80E-04
same,Diffusion Coefficient,"0.4µM, + FtsN&Z, replicate Exp.5",1.83E-02
same,Diffusion Coefficient,"0.4µM, + FtsN&Z, replicate Exp.6",1.51E-04
same,Diffusion Coefficient,"0.4µM, + FtsN&Z, replicate Exp.7",1.71E-04
same,Diffusion Coefficient,"0.4µM, + FtsN, Mean, n=5 (WT), 6 (R286W)",0.0457
same,Diffusion Coefficient,"0.4µM, + FtsN, replicate Exp.1",2.78E-02
same,Diffusion Coefficient,"0.4µM, + FtsN, replicate Exp.2",2.32E-02
same,Diffusion Coefficient,"0.4µM, + FtsN, replicate Exp.3",3.10E-02
same,Diffusion Coefficient,"0.4µM, + FtsN, replicate Exp.4",1.25E-01
same,Diffusion Coefficient,"0.4µM, + FtsN, replicate Exp.5",3.86E-02
same,Diffusion Coefficient,"0.4µM, + FtsN, replicate Exp.6",2.82E-02
same,Diffusion Coefficient,"0.4µM, + FtsZ, Mean, n=5 (WT), 8 (R286W)",0.0305
same,Diffusion Coefficient,"0.4µM, + FtsZ, replicate Exp.1",9.70E-03
same,Diffusion Coefficient,"0.4µM, + FtsZ, replicate Exp.2",1.10E-04
same,Diffusion Coefficient,"0.4µM, + FtsZ, replicate Exp.3",2.57E-02
same,Diffusion Coefficient,"0.4µM, + FtsZ, replicate Exp.4",8.47E-04
same,Diffusion Coefficient,"0.4µM, + FtsZ, replicate Exp.5",3.19E-02
same,Diffusion Coefficient,"0.4µM, + FtsZ, replicate Exp.6",1.28E-01
same,Diffusion Coefficient,"0.4µM, + FtsZ, replicate Exp.7",3.30E-03
same,Diffusion Coefficient,"0.4µM, + FtsZ, replicate Exp.8",4.40E-02
same,"Diffusion Coefficient, mean",0.8 µM FtsA + N,4.39E-02 µm2/s
same,"Diffusion Coefficient, mean",0.8 µM FtsA + Z&N,7.03E-03 µm2/s
same,"Diffusion Coefficient, mean",0.8 µM FtsA + Z,1.59E-02 µm2/s
same,Diffusion Coefficient,"0.8µM FtsA alone, Mean, n=19 (WT), 8 (R286W)",0.1136
same,"Diffusion Coefficient, mean",0.8 µM FtsA alone,1.14E-01 µm2/s
same,Diffusion Coefficient,"0.8µM FtsA alone, replicate Exp.1",2.82E-01
same,Diffusion Coefficient,"0.8µM FtsA alone, replicate Exp.2",8.82E-02
same,Diffusion Coefficient,"0.8µM FtsA alone, replicate Exp.3",6.72E-02
same,Diffusion Coefficient,"0.8µM FtsA alone, replicate Exp.4",7.30E-02
same,Diffusion Coefficient,"0.8µM FtsA alone, replicate Exp.5",1.01E-01
same,Diffusion Coefficient,"0.8µM FtsA alone, replicate Exp.6",8.47E-02
same,Diffusion Coefficient,"0.8µM FtsA alone, replicate Exp.7",1.13E-01
same,Diffusion Coefficient,"0.8µM FtsA alone, replicate Exp.8",9.93E-02
same,Diffusion Coefficient,"0.8µM, + FtsN&Z, Mean, n=5 (WT), 4 (R286W)",0.0070
same,Diffusion Coefficient,"0.8µM, + FtsN&Z, replicate Exp.1",2.90E-03
same,Diffusion Coefficient,"0.8µM, + FtsN&Z, replicate Exp.2",7.64E-03
same,Diffusion Coefficient,"0.8µM, + FtsN&Z, replicate Exp.3",1.38E-02
same,Diffusion Coefficient,"0.8µM, + FtsN&Z, replicate Exp.4",3.70E-03
same,Diffusion Coefficient,"0.8µM, + FtsN, Mean, n=4 (WT), 3 (R286W)",0.0439
same,Diffusion Coefficient,"0.8µM, + FtsN, replicate Exp.1",1.96E-02
same,Diffusion Coefficient,"0.8µM, + FtsN, replicate Exp.2",4.05E-02
same,Diffusion Coefficient,"0.8µM, + FtsN, replicate Exp.3",7.15E-02
same,Diffusion Coefficient,"0.8µM, + FtsZ, Mean, n=3 (WT), 8 (R286W)",0.0159
same,Diffusion Coefficient,"0.8µM, + FtsZ, replicate Exp.1",3.69E-02
same,Diffusion Coefficient,"0.8µM, + FtsZ, replicate Exp.2",8.95E-03
same,Diffusion Coefficient,"0.8µM, + FtsZ, replicate Exp.3",1.47E-02
same,Diffusion Coefficient,"0.8µM, + FtsZ, replicate Exp.4",3.84E-03
same,Diffusion Coefficient,"0.8µM, + FtsZ, replicate Exp.5",3.32E-03
same,Diffusion Coefficient,"0.8µM, + FtsZ, replicate Exp.6",1.93E-02
same,Diffusion Coefficient,"0.8µM, + FtsZ, replicate Exp.7",8.19E-14
same,Diffusion Coefficient,"0.8µM, + FtsZ, replicate Exp.8",4.01E-02
same,Dcoeff,0.10 µM FtsA,5.20E-02 µm2/s
same,Dcoeff,0.20 µM FtsA,6.48E-02 µm2/s
same,Dcoeff,0.40 µM FtsA,1.35E-01 µm2/s
same,Dcoeff,0.80 µM FtsA,1.14E-01 µm2/s
